# Test results as given in patent US20220275059A1 (HARBOUR ANTIBODIES, published 2022).
# Where a chain is given by its changes, count along the chain named. Where “and” joins values, the source holds several entries; their conditions need not be identical. Equal values may be shown once.
# B1: 5.2b7 (antibody, V domains shown)
# VH: QVQLVESGGGVVQPGRSLRLSCAASGFTFSSDGMHWVRQAPGKGLEWVAVIWFDGSNKYYADSVKGRFTISRDNSKNTMYLQMNSLRAEDTAVYYCTRDRGITMGRGRYYYYYGMDVWGQGTTVTVSS
# VL: EIVMTQSPATLSVSPGERATLSCRASQSVGSNLAWYQQKPGQAPRLLIYGASTRATGIPARFSGSGSGTEFTLTISSLQSEDFAVYYCQQYNNWPLTFGGGTKVEMKR
# B2: 5.5e11 (antibody, V domains shown)
# VH: QVQLVQSGAEVKKPGSSVKISCKASGGTFSTHAFTWVRQAPGQGLEWIGRIIPIFDTPKYAQKFQGRVTIAADISTSTVFMELSSLRSEDTAVFYCAREGYYISGSYRDAFDIWGQGTMVTVSS
# VL: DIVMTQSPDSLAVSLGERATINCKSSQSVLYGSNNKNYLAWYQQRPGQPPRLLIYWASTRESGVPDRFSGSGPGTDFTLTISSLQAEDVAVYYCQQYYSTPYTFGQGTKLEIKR
# B3: 1.2g5 (antibody, V domains shown)
# VH: QVQLVQSGAEVKKPGSSVKVSCKASGGTFSTYAISWVRQAPGQGLEWMGGIIPIFGTANYAQKFQGRVTIIADKSTNTAYMDLSSLRSEDTAVYYCAREGNLGYDVVTGYSYFVYWGQGTLVTVSS
# VL: EIVLTQSPGTLSLSPGERATLSCRASQSVSSSYLAWYQQKPDQVPRLLIYGTSSRATGIPDRFSGSGSGTDFTLTISRLEPEDFAVYYCQQYGRSLTFGGGTKVEIKR
# B4: 1.6f9 (antibody, V domains shown)
# VH: QVQLVQSGAEVKKPGSSVKVSCKASGGAFSAYVITWVRQAPGQGLEWMGGIIPVFGTAHYAQKFQGRVTITADKSTSTAFMELSSLRSEDTAVYYCAREGDIEVVLAGRGYFDYWGQGTLVTVSS
# VL: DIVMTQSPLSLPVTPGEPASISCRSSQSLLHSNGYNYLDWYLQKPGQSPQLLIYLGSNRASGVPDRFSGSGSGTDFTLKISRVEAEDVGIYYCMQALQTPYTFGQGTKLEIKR
# B5: 1.17f10 (antibody, V domains shown)
# VH: QVQLVESGGGVVQPGRSLRLSCAASGFTFSKYGMHWVRQAPGKGLEWVANIGYDGSDKYYADSVKGRFTISRDNSKNMLYLQMNSLRAEDTAVYFCARGGWIDDYYYGLDVWGQGTTVTVSS
# VL: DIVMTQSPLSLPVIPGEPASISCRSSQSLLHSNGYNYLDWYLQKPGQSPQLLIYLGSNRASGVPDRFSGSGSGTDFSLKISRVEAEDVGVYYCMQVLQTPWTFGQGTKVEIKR
# B6: 7.7h8 (antibody, V domains shown)
# VH: QVQLVESGGGVVQTGRSLRLSCAASGFTFSAYAMHWVRQAPGKGLEWVTFIGYEESNKYHADSVKGRFTISRDNSKNTLYLQMNSLRAEDTAVYYCARDRGISVAATWDYYYYYGMDVWGQGTTVTVSS
# VL: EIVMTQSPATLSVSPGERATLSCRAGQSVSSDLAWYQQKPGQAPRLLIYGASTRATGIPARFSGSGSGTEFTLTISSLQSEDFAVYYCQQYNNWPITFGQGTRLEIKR
# B7: 7.3a9 (antibody, V domains shown)
# VH: B1 VH with T28N, F53Y, S56R, S75T, M79L, T97A, R108P
# VL: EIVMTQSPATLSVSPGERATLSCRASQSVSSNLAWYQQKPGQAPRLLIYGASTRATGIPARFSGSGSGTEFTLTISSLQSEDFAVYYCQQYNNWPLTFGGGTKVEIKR
# B8: 7.6c11 (antibody, V domains shown)
# VH: B1 VH with F53Y, N57S, K58E, A61G, M79L, T97A, R108V
# VL: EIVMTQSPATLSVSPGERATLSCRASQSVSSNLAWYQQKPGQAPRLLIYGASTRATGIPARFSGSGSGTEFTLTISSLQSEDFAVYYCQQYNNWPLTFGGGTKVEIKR
# B9: 1.3h2 (antibody, V domains shown)
# VH: QVQLVESGGGVVQPGRSLRLSCAASGFTFSRYGMHWVRQAPGKGLQWVAFIWYDGSNKYYADAVKVRFTISRDNSKNTLYLQMNSLRAEDTAVYYCATEGDYYGSGSYSRAEYFQEWGQGTLVTVSS
# VL: B1 VL with G30S, S31I, G50D, A51T, T53A, L96F, G100P, E105D, M106I
# B10: 7.2h5 (antibody, V domains shown)
# VH: QVQLVQSGAEVKKPGSSVKVSCKASGGTFSSYAISWVRQAPGQGLEWMGGIIPIFGTVKNAQKFQGRVTITADKSTGTAYMELSSLRSEDTAVYYCARDHYYDSNDYYWYFDLWGRGTLVTVSS
# VL: B1 VL with G30S, Q38K, A55V, M106I
# B11: 4.2c3 (antibody, V domains shown)
# VH: QVQLVESGGGVVQPGRSLRLSCTASGFTFSGYGMHWVRQAPGKGLEWVAIIWYDGSNTYYADSAKGRFTISRDNSKNTLYLQMNSLRVEDTAVYYCARDRGISVAALWKYYYYHGLDVWGQGTTVTVSS
# VL: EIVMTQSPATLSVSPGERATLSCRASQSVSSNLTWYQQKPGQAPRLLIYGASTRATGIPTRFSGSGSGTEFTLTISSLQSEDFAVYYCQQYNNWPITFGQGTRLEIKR
# B12: 4.9f12 (antibody, V domains shown)
# VH: B11 VH with R16M, G33A, G42V, T58K, A64V, V88A, V104E, L107K, H114Y, L116M
# VL: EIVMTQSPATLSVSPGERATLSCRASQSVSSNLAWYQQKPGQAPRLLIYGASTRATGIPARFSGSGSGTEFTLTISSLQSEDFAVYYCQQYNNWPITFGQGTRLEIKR
# B13: 4.7a6 (antibody, V domains shown)
# VH: B11 VH with G33A, G42V, T58K, A64V, V88A, V104E, L107K, H114Y, L116M
# VL: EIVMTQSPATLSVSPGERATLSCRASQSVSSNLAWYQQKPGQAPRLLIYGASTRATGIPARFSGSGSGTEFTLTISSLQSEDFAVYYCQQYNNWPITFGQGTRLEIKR
# B14: 7.7f3 (antibody, V domains shown)
# VH: B11 VH with A61T, N77D, V125T
# VL: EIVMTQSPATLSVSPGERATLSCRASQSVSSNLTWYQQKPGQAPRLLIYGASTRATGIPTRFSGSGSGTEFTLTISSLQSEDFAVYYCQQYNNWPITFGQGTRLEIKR
# B15: 7.9g1 (antibody, V domains shown)
# VH: QVQLVESGGGVVQPGRSLRLSCAASGFTFSTYAMHWVRQAPGKGLEWVAVIWYDGSNKYYADSVKGRLTISRDNSKNTLFLQMNSLRAEDTAVYYCARDRGITTTDTGYYYYYYGLDIWGQGTTVTVSS
# VL: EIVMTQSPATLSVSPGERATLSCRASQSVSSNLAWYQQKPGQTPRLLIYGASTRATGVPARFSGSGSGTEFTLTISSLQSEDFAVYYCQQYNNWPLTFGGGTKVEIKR
# B16: 1.3g2 (antibody, V domains shown)
# VH: B3 VH
# VL: B3 VL
# B17: 7.9g10 (antibody, V domains shown)
# VH: QVQLVQSGAEVKKPGSSVKVSCKASGGTFSSYAISWVRQAPGQGLEWMGGIIPIFGTANYAQKFQGRVTITADKSTNTAYMELSSLRSEDTAVYYCAREDITMVRGVITNYWYFDLWGRGTLVTVSS
# VL: DIQMTQSPSSLSASVGDRVTITCRASQDISNYLAWYQQKPGKVPKLLIYAASTLQSGVPSRFSGSGSGTDFTLTISSLQPEDVATYYCQKSNNAPLTFGGGTKVEIKR
# B18: 7.5d3 (antibody, V domains shown)
# VH: QVQLVESGGGVVQPGRSLRLSCAATGFTFSYYGMHWVRQAPGKGLEWVAVIWFDGTNIYYADSVRGRFTISRDNSKNTLYLQMNSLRAEDSAVYYCARDRRSSDWYVVFDYWGQGTLVTVSS
# VL: DIQLTQSPSFLSASVGDRVTITCRASQGISSYLAWYQQKPGKAPKLLIYAASTLQSGVPSRFSGSGSGTEFTLTISSLQPEDFATYYCQQLNSYPWTFGQGTKVEIKR
# B19: 1.10e9 (antibody, V domains shown)
# VH: QVQLQQSGPGLVKPSQTLSLTCAISGDSVSSNSAAWNWIRQSPSRGLEWLGRTYYRSKWYNDYAVSVKSRITINPNTSKNQFSLQLNPVTPEDTAVYFCAREWFGEGYFDLWGRGTLVTVSS
# VL: EIVMTQSPATLSVSPGESATLSCRASQTIYSNLAWYQRKPGQAPRLLIYRASTRATGIPARFSGSGSGTEFTLTISSLQSEDFAVYCCQQFNNWPYTFGQGTKLEIKR
# B20: 1.6e1 (antibody, V domains shown)
# VH: B4 VH with V33A, T35S, V54I, H59N, K74T, F80Y, G108A, Y111F
# VL: B17 VL with D28G, S91Y, N93S, L96W, G100Q
# B21: 1.6c2 (antibody, V domains shown)
# VH: B4 VH with A9T, V33A, V54I
# VL: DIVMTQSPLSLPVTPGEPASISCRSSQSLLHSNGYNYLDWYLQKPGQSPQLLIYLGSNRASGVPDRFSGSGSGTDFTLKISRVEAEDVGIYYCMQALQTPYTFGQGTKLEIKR
# B22: 5.11h8 (antibody, V domains shown)
# VH: B4 VH with V33A, T35D, V54I, F64L, F80Y, I102S, E103G, V104L, G108A, Y111F
# VL: B17 VL with D28G, S91Y, N93S, L96W, G100Q
# B23: 7.9c10 (antibody, V domains shown)
# VH: QVQLVESGGDVVQPGRSLRLSCAASGITFSNYGMHWVRQAPGKGLEWVAVIWYDGSNKYYADSVKGRFTISRDNSKNTLYLQMNSLRAEDTAVYYCARDRGMTGTTWEYYYYYGMDVWGQGTTVTVSS
# VL: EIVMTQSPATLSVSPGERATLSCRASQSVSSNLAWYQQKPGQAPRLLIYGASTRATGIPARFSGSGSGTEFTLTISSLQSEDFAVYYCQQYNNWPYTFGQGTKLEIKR
# B24: 2.9d7 (antibody, V domains shown)
# VH: QRKLVESGGGVVQPGRSLRLSCAVSGLIFSNYGMHWVRQAPGKGLEWVAVIWYDGSNTYYTDSVKGRFTISRDNSKNTLYLQMNSLRAEDTAVYYCARDRGMTAPGPGTYYYFYGMDVWGQGTTVTVSS
# VL: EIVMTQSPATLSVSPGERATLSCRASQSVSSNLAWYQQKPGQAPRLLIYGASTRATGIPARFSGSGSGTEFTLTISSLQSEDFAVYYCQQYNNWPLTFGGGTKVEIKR
# Target: T1, MERS-S on pseudotyped VSV particles (MERS-S carrying a 16-a.a. cytoplasmic tail truncation) (MERS-CoV, UniProt K9N5Q8 18-1337)
# Assay: cell-based or functional assay
Binder,"IC50, neutralization of MERS-S pseudovirus infectivity (H2L2)","IC50, neutralization of MERS-S pseudovirus infectivity (human IgG1)"
B1,~0.81 ng/mL,
B2,~1.7 ng/mL,
B3,~0.62 ng/mL,~0.007 µg/mL
B4,~0.38 ng/mL,~0.019 µg/mL

# Target: SARS-CoV spike protein (SARS-CoV, UniProt P59594 15-1182)
# Assay: ELISA on SARS Secto
row,Binder,binding result
1,B5,no binding (tested: 25.00 (no unit printed))

# Target: T1, MERS-S on pseudotyped VSV particles …
# Assay: cell-based or functional assay
# Remark: another data set of the same source
row,Binder,"IC50, neutralisation of MERS-S VSV pseudovirus on Vero cells"
1,B3,0.002 µg/ml and 0.013 nM
2,B4,0.006 µg/ml and 0.04 nM

# Target: MERS-CoV S S1 subunit (MERS-S1) (MERS-CoV EMC isolate, UniProt K9N5Q8 19-748)
# Assay: ForteBio Octet kinetic measurement (FIG. 3A)
row,Binder,Kd
1,B6,~0.54 nM
2,B7,~0.43 nM
3,B8,~0.4 nM
4,B1,~0.36 nM
5,B2,~0.3 nM
6,B9,~1.9 nM
7,B10,~0.36 nM
8,B11,~0.12 nM
9,B12,~0.13 nM
10,B13,~0.13 nM
11,B14,~0.12 nM
12,B15,~0.21 nM
13,B3,~0.081 nM
14,B16,~1.1 nM
15,B17,~0.2 nM
16,B18,~6 nM
17,B19,~0.44 nM
18,B4,~0.53 nM
19,B20,~0.11 nM
20,B21,~0.86 nM
21,B22,~0.68 nM
22,B23,~0.11 nM
23,B24,~0.35 nM

# Target: T2, MERS-S1^A domain (MERS-CoV EMC isolate, UniProt K9N5Q8 19-357)
# T2 sequence: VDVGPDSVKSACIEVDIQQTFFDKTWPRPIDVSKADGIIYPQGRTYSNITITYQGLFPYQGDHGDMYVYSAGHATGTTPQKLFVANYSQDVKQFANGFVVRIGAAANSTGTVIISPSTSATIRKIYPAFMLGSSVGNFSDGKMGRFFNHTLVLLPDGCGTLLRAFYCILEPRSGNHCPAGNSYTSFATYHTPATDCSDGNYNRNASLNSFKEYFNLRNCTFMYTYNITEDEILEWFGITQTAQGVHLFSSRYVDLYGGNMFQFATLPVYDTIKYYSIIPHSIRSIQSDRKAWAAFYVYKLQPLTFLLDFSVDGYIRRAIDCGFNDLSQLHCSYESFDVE
# Assay: ELISA on coated MERS-S1^A, OD450 [D]
row,Binder,binding result
1,B3,no binding (tested: about 5x10^5 ng/ml)
2,B4,no binding (tested: about 5x10^5 ng/ml)
